experiment: yeast display, Sf9 membrane polyspecificity reagent, FACS + sequencing; frameworks hold sequencing errors
Procedure, shortened: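 Genes from sorted yeast were amplified by colony PCR, read by MiSeq 2 × 250 sequencing and filtered on CDR length. These cells carried a synthetic nanobody library in Saccharomyces cerevisiae BJ5465 and were sorted by FACS into low and high (top ~1%) gates on anti-HA and streptavidin fluorescence. Polyreactivity is labelled according to the gate of origin.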

| Sequence | polyreactivity (PSR sort gate) |
| --- | --- |
| QVQLVESGGGLVQAGGSLRLSCAASGIIFPLYAMGWYRQAPGKERELVADITRGGSTYYADSVKGRFTISRDNAKNTVYLQMNSLKPEDTAVYYGNKQKRWTYSHYFPTTYDYWGQGTQVTVSS | high polyreactivity |
| QVQIVESGGGLVQAGGSLRLSCAASGRTLKFNTMGWYRQAPGKERELVAAISGSGGSTYYADSVKGRFTISRDNAKNTVYLQMNSLKPEDTAVYYCAKYGVLRGYGYDYWGQGTQVTVSS | high polyreactivity |
| QVQLVESGGGLVQAGGSLRLSCAASGSTFGKYAMGWYRQAPGKERELVATITVSGGNTNYADSVKGRFTISRDNAKNTVYLQMNSLKPEDTAVYYCNAGGRYHAPSGDYWGQGTQVTVSS | low polyreactivity |
| QVQLVESGGGLVQAGGSLRLSCAASGITFSYNAMGWYRQAPGKERELVAAIRVGDGSTYYADSVKGRFTISRDNAKNTVYLQMNSLKPEDTAVNYCNARYLRLRYPYTDEYNYWGQGTQVTVSS | low polyreactivity |
| QVQLVESGGGLVQAGGSRRLTCAASGSTFTQYPMGWYRQAPGKERELVAGISWGGSSTYYADSVKGRFTISRDNAKNTVYLEMNSLKPEDSEVYYCASAVWREYGYYFVYWDYSWGQGTQGTVSS | low polyreactivity |
| QVQLVESGGGLVQAGGSIRLSSAASGFTFYPYMGWYRQAPVKERELVATITWIGDDTYYADSVKGRFTISRDNAKNTVYLQMNSLKPEDTAVYYCNTDVDDTLYYSPMDYWGQGTQVTVSS | low polyreactivity |
| QVQLVESGGGLVQAGGSLRLSCAASGSTFKAYAMGWYRQAPGKERELVAAITKSGGRTYYADSVKGRFTISRDNAKNTVYLQMISLKPEDTAVYYCAAVFRPDSSAYRYYYWGQGTQVTVSS | high polyreactivity |
| QVQLVESGGGLVQAGGSLRLSCAASGSTFTYYDMGWYRQAPGKERELVATIDSTTRTYYADSVKGRFTISRDNAKNTVYLQMNSLKPEDTAVYYCAADLTWAYFYYLFYRYDYWGQGTQVTVSS | low polyreactivity |
| QVQLVESGGGLVQAGGSLRLSCAASGFTFRWYDMGWYRQAPGKERELVAAITWRGDNTYYADSVKGRFTISRDNAKNTVYLQMNSLKPEDTAVYYCAAAWPTFISDLSGVDYWGQGTQVTVSS | low polyreactivity |
| QVQLVESGGGLVQAGGSLRLSCAASGFTFIPYAMGWYRQAPGKERELVASITYSGGRTYYADSVKGRFTISRDNAKNTVYLQMNSLKPEDTAVYYCNARSWGGYYHWGQGTQVTVSS | high polyreactivity |
| QVQLVESGGGLVQAGGSLRLSCDASGRSSVSMLMVWYRQAPGKERELVARITGSGGSTYYADSVKGRFTISRDNAKNTVYLQMNSLKPEDTAVYYCAARYLWRGRYNYWGQGTQVTVSS | high polyreactivity |
| QVQLVESGGGLVQAGGSLRLSCAASGITFIAYTMGWYRQAPGKERELVAGISRNGGRTYYADSVKGRFTISRDNAKNTVYLQMNSLKPEDTAVYYCNKVVSTYSSIKYDYWGQGTQVTVSS | high polyreactivity |
| QVQLVESGGGLVQAGGSLRLSCAASGSIFYNNAMGWYRQAPGKERELVAAITIGGSTNYADSVKGRFTISRDNAKNTVYLQMNSLNPEDTAVYYCAAAVLYWVGYGYWGQGTQVTVSS | low polyreactivity |
| QVHLVESGGGLVQAGGSLRLSCAASGSTFAPNAMGWYRQAPGKERELVASIRRGGSTHYADSVKGRFTISRDNAKNSVYLQMNSLKPEDTAVYYCATDQDPCSWYRYDYWGQGTQVTVSS | low polyreactivity |
| QVQLVESGGGLVQTGGSLRLSCAASGSTFYPNTMGWYRQAPGKERELVAAITNGGSTNYADSVKGRFTISRDNAKNTVYLQMNSLKPEDTAVYYCAALYYRFLLGWYKYGYWGQGTQVTVSS | high polyreactivity |
| QVQLVESGGGLVHAGGSLRLSCAASGSIFFIYAMGGYRPAPGTERELVARISQGGASPYYADSVKGRFTISRDNAKTTVYLQMNSLKPEDTVVYYCAAGYTNTRLRPKGYGYYYWGQGTQVTVSW | high polyreactivity |
| QVQLVESGGGLVQAGGSLRISCAASGSTFYIYSMGWYRQAPGKERELVARISGSGGSTYYADSVKVRFTISRDYAKNTVYLQMNSLKPEDTAVYYCAADDIYKYYLYYAFPYYRYDYWGLGTQVTVSS | low polyreactivity |
| QVQLVESGGGLVQAGGSLRLSCAASGSIFKYYAMGWYRQAPGKERELVAAISTGGTTNYADSVKGRFTISRDNAKKTVYLQMNSLKPDDTAVYYCNRDFLVRSRYKYYYWGQGTQVTVSS | low polyreactivity |
| QVQLVESGGGLVQAGGSLRLSCAASGSTFSPYGMGWYRQAPGKERELVAAIRGRGGNTYYADSVKGRFTISRDNAKNTVYLQMNSLKPEDTAVYYCAAQSFAQYGWRYGDWGQGTQVTVSS | high polyreactivity |
| QVQLVESGGGLVQAGGSLRLSCAASGLTFYYYVMGWYRQAPGKERELVAAISKSGGRTYYADSVKGRFTISRDNAKNTVYLQMNSLKPEDSAVYYCAAMYTPNYTAYDSWGQGTQVTVSS | high polyreactivity |
| QVQLVESGGGLVQAGGSLRLSCAATGSIFFDNAMGWYRQAPGHERELVAAITSSGGRTYYADSVKGRFTISRDNAKNTVYLQMNSLKPEDTAVYYCAASPKYTTGRYSGEYWGQGTQVTVSS | low polyreactivity |
| QVQLVESGGGLVQAGGSLRLSCAASGFIKFYAMGWYRQAPGKERELVASISSGGRTNYADSVKGRFTISRDNAKNTVYLQMNSLKPEDTAVYYCAAIGWRTRSRFEYWGQGTQVTVSS | high polyreactivity |
| QVLLEESVGGLDQAGGSLRLSCAASGFNFQTNAMGRYRQAPGKEREFVAAISDSGGSTNYADSVKGRFTISRDNAKNTGYLQMNSLKPEDSAVYYCATSFAVYDYDYWGQGTQVTVSS | low polyreactivity |
| QVQLVESGGGLVQAGGSLRLSCAASGLIFASYAMGWYRQAPGKERELVAAITSSGGSTYYADSVKGRFTISRDNAKNTVYLQMNSLKPEDTAVYYCAADIYTYNLFYHWSWLDYNYWGQGTQVTVSS | high polyreactivity |
| QVQLVESGGGLVQAGGSLRLSCAASGRTFYPYAMGWYRQAPGKERELVAAITISVGSTYYADSVKGRFTISRDNAKNTVYLQMNSLNPEDTAVYYCAAANTPEYDYWGQGTQVTVSS | low polyreactivity |
| QVQLVESGGGLVQAGGSLRLSCAASGNIFSFNDVGGSRQAPGNEREWVAAITSSDSTNYADSVKGRFTISRDNAKNTVYLQMNSLKPEDTAVYYCATEILTAARDTVVYQFYLGYYYWGQGTQVTVSS | low polyreactivity |
| QVQLVESGGGLVQAGGSLRLSCAASGYIFVIYAMGWYRQAPGKERELVAAISWGGGSTYYADSVKGRFTISRDNAKNTVYLQMNSLKPEATAVYYCAARGWVVGRISVPGEYWGQGTQVTVSS | high polyreactivity |
| QVQLVESGGGLVQAGGSLRLSCAASGRIFSYNAMGWYRQAPGKERELVAASTFSGGGTYYADSVKGRYTISRDNAKNPVYLQMNSLKPEDTAVYYCNNLSYGYSTYGYWGQGTQVTVSS | low polyreactivity |
| QVQLVESGGRLVQAGGSLRLSCAASGFTFWNYAMGWYRQAPGKERELVAAISRSGTSTYYADSVKGRFTISRDYAKNTVYLQMNSLKPEDTAVYYCNVLRVKSITYLMDYWGQGTQVTVSS | high polyreactivity |
| QVQLVESGGGLVQAGGSLRLSCAASGSIFVYNAMGWYRQAPGKEREWVAGITFIGGSTYYADSVKGRFTISRDNEKNTVYLQMNSLKPEDTAFYYCATDLPGGRYYGPYDYWGQGTQVTVSS | low polyreactivity |

— the nanobody polyreactivity screen of Harvey et al. (2022)
